The values that follow come from paper PMC5547543.

The target of assay [1] is Hck (2PA-YEEI) (UniProt P08631).
Assay [2] shares this target. Description: SPR; Hck (2PA-YEEI) amine-coupled (EDC/NHS) to a CMD 500 carboxymethyl dextran chip, 6053 RU, BIAcore 2000; Csk, Chk, Chk mutants and chimera as analytes in HBS (10 mM HEPES pH 7.4, 150 mM NaCl, 3.4 mM EDTA, 0.005% Tween 20); global fit to a 1 to 1 model with mass transfer; molecular binding activity from the maximum response.

B1: Csk-homologous kinase (Chk), recombinant wild type (enzyme)
chain: MQGHFPAERREGRPRRGTRGQQQLLVSPRFLRAWHPPPVSARMPTRRWAPGTQCITKCEHTRPKPGELAFRKGDVVTILEACENKSWYRVKHHTSGQEGLLAAGALREREALSADPKLSLMPWFHGKISGQEAVQQLQPPEDGLFLVRESARHPGDYVLCVSFGRDVIHYRVLHRDGHLTIDEAVFFCNLMDMVEHYSKDKGAICTKLVRPKRKHGTKSAEEELARAGWLLNLQHLTLGAQIGEGEFGAVLQGEYLGQKVAVKNIKCDVTAQAFLDETAVMTKMQHENLVRLLGVILHQGLYIVMEHVSKGNLVNFLRTRGRALVNTAQLLQFSLHVAEGMEYLESKKLVHRDLAARNILVSEDLVAKVSDFGLAKAERKGLDSSRLPVKWTAPEALKHGKFTSKSDVWSFGVLLWEVFSYGRAPYPKMSLKEVSEAVEKGYRMEPPEGCPGPVHVLMSSCWEAEPARRPPFRKLAEKLARELRSAGAPASVSGQDADGSTSPRSQEP
Broadly, the Kd is the equilibrium constant for the complex coming apart. By koff is commonly meant the rate constant with which the complex falls apart. As usually defined, the kon is the second-order rate constant of association. Molecule B1 yielded an inhibition of the kinase activity of Hck (2PA-YEEI) (0.5 μM) on the cdc2 (6-20) peptide after pre-incubation with Chk; more than 60% at 1.5 μM, up to 8.3 μM Chk with Hck (2PA-YEEI) [1] of 80%. In the assay with Hck (2PA-YEEI) [2], this molecule came in with a Kd of 64 nM, a koff of 0.000272 s⁻¹ and a kon of 4250 M⁻¹ s⁻¹. The same molecule returned a molecular binding activity (MBA) at 2.2 μM Chk with Hck (2PA-YEEI) [2] (scale: mol of analyte bound per mol of immobilized Hck) of 0.46.
